Assay: label from the status in PepcDB records

Row | Sequence | protein production
1 | MENSTLYIVIAGLWLAVGFGIFLKKLDMPVIIGYICTGTVLAAFFKINDFDLLSDIGEFGIVFLMFMIGIEFNFDKLKSIKQEVLVFGLLQVVLCALIAFLLGYFVLGLSPIFSLVLGMGLSLSSTAIVLKFFEDSKQLSTPMGKSAVGILIFQDIAAIPMLLILTILGSKDSNVNLLILKTFISAGIILVLLLLPGKKGANLILEQAKDTRLPEIFIGTILVIVCSAAGLSHFFGFSMSLGAFIVGMAISKSRYKINVQEEFAQLKNLFLALFFITIGMQINVSFFMEKFFVVIFLLILVMGFKTAIIYALLRFFRDAKTAIKTALSLAQIGEFSFVIFLNSGSHQLFNLQEKKGILGFLHQKNILNIAQNDIHQLLILMVVFSMLATPFILKYLESIAQFILHQKSQENEPAKK | failed
2 | MSCKKTEKFSETWFFKWILNNQAVVSFLILLLIGLTVLIFTKISPIFSPVIQFLTIVMLPLVISMLLYYLIKPLVLLVERTGLNRTMSILVIYAILALLLVWGISTAIPNLQDQILILLRNAPSYISRANSETERWLKLPILSNFHGDLEAMLSDFSARMINYAENFSTSALSWIGTFASTVARVTVAIILTPFILFYLLRDSQKLKHSFVSALPTRFRETTVRMLSDINNQLEGYVRGQVTVAIVIAIMFCIMFKIVGLRYGMTFGILAGFLNMIPYLGSFIAMVPVVIMGLVQGPTMLIKVLIIFVIEQTIEGRFVSPLVLGNKLSIHPITIMFILLTAGSLYGVWGVLLGIPIYASVKVIVKDIFDWYRSVSNLYQDDIEIKGQKYDVK | failed
3 | MARKVILFIAMSIDNYIADDQGAVDWLEKNVHGTESDDSYEKMYSKIDTVIMGRTTYEQVTQKLSPEKYVYADRQTYIVTSHLGEDTDKIKYWKQSPVELVKRIQKEKGKDVWIVGGAKLIDPLVQANLIDTYILTTVPIFLGSGIRLFDRLEEQVPVRLIDVYQKNELVYSIYQRG | not failed
4 | MGHHHHHHSHMLITVYCVRRDLSEVTFSLQVSPDFELRNFKVLCEAESRVPVEEIQIIHMERLLIEDHCSLGSYGLKDGDIVVLLQKDNVGPRAPGRAPNQPRVDFSGIAVPGTSSSRPQHPGQQQQRTPAAQRSQGLASGEKVAGLQGLGSPALIRSMLLSNPHDLSLLKERNPPLAEALLSGSLETFSQVLMEQQREKALREQERLRLYTADPLDREAQAKIEEEIRQQNIEENMNIAIEEAPESFGQVTMLYINCKVNGHPLKAFVDSGAQMTIMSQACAERCNIMRLVDRRWAGVAKGVGTQRIIGRVHLAQIQIEGDFLQCSFSILEDQPMDMLLGLDMLRRHQCSIDLKKNVLVIGTTGTQTYFLPEGELPLCSRMVSGQDESSDKEITHSVMDSGRKEH | failed
5 | MSRVHNRALSAAELQSFGDELDAIRARVLSQVGAADARYIRRIVAAVRWTGVAGRALLFLGAFVHSVLIPAWIAGVLLLALSKILENMELGHNVMHGQYDWMGDPQLNGNTYEWDIVATGDNWRKTHNFKHHTYTNVRGMDDDIGYGLLRIFPEQRWRPFYLLQPFIAVVFALLFEWGVAIQDLRLGRWFAGKMKAAELRASFLPVGRKMGRQMLKDYIVFPLLAGPFFLTVLLGNLAANVLRSIWTFVIIFCGHFTADAEVFPKESIRNESRGHWYLRQLRGSSNLTGGKLMNVLSGNLSHQIEHHFYPDLPANRYAQIAVEVKQVCARYGQHYNTGSLPRQFGQVMWRIVRHAFPSRPKPVRQGSGALQSA | failed
6 | RLAHVSAASRELARALEPDAVMAVLAGILRERLGFYRVTVALVREGALVGHLTRRGEDLYWTEGRSRIRLPVATSPDPMAQAVRERRTRIVPREALPPHLAEGVGASVAYVPVLVEEEALGCVAVDHGPGGPPVTEEEVEYVELLAGVAGVALRNAQLYRERTALSLALAAERKRLS | failed
7 | MEVSEGIEIIRGDPRRALIKLSGPLIVAMLLTSIYNLVDAVWVAGLGGEALAAIGFVTPIYMILVGLSNGLGAGAASSVSRCLGAGDEEGMNNSASHTIIITLAVSIILTVIIEILLRDILLSLGAAGALKPAMEYGSVVFAGTLFTLFPGAAYGILRSEGDARRPMYAMGLSAVLNMVLDPILIYTAGWGIAGAAWATVISQLLVSLLIIYWFLAGRTFTSIGWSHFRADRGVVWSILSVTIPASAEFLVMSMVTALLNWILTSVAGTSAVAVYSAGWRIVMLAIVPVISVATALVSVSGVAYGSRNFENLEVAHGYSIRLGLLIAGATAALTFVLAPWIAWIFSYSQASSHLAPRITGFLRVICLFYIFLPPGIMSGSIFQGAGRGMTSLMLSVIRQVLLVAVFAYLLAVTLGLGEVGVWWGVVAGDIGGSLVAYLWARLFIGRLRRYAA | failed
8 | MGHHHHHHSHMTDPSKLAVAVVCSSNMNRSMEAHNFLAKKGFNVRSYGTGERVKLPGMAFDKPNVYEFGTKYEDIYRDLESKDKEFYTQNGLLHMLDRNRRIKKCPERFQDTKEQFDIIVTVEERVYDLVVMHMESMESVDNRPVHVLNVDVVDNAEDALMGAFVITDMINMMAKSTDLDNDIDELIQEFEERRKRVILHSVLFY | not failed
9 | MKNLKNKHFALLYLVLFLVLAKLSPFIITALIMGLYLSIIIDYVARFLEVFIKKPRVLPRVISNVLVFLTIAYSAVNFFPVIVREAQKVFSEIDRIRSGLENIDIPGWLSSILSSISASFSEGALSLVNKIVGYVPSFITAAILIVITAFIVSSLKRLIKENVHYLFPTNPSDGKEFLKTTYTEFERFVGGQVLVAIFVGLFVGFGAFIFKIPSAFFLGMLAFVTDFVPYLGVVISAIPLLMLAFSVHGLSGLLIGTIILVAANQLEMWVLAPKIQSNTLNVHWFIILIMILILGDLFSFGGVLIALPFLIFLKNFWKQYVMGG | failed
10 | METPNPLTLSELPHDLLRNIFNRLSFADFHRATWNSISKQTAPPKTKSPWLILFPDEGVHGCVLYNPDEDRIYKSVRDFSGTIFLANSGNWFLVMDSKSNLYIIDVFSENRIDLPPLESLLSDNFTFEQKGDKELKWQASNDQILVFRLPRAEELRGILWVDEKMKEFVAVWFLEDSCNFLAFYKKADDHYSHIQLEYVITDVFQSVSDIVLHGCFLYIGVGDYIQIIDLSKDQGFKDVTRNYLFNVHNGPWGFRSIFNLVVTTSGEVLMVLNNLYEKNIESEKSFRIFKKDPNPDPNKHDNLLVEVDSLGNEEVMLLDLGITMHGIEPNSIYFTRHDRVVHRLYIS | not failed
11 | MNIVLFHSTLGPRPAVRQAADRLRDAGHQVWTPDLFEGRTFDTVEEGMAHQDGIGREELLKRAVLAAAPYSERGLVYAGFSLGASIAQTLALGDHRARGLLLLHGTSDLAPNASVDELPVQLHVAEPDPFETDDWLSAWYLQMGRIGADVEVHRYPGAGHLYTDPGLDDYDAEAAEATWRVALGFLESLQEAQAGE | failed
12 | MAKGPLVSFQALVENARDLVYVLDAGGAIRYASPNVRQVLGYDPEGHTRETLYALDFVHPEDRTYAEAALEDLLRHPGKTREFRLRLLDAWGRVRAVRVWGRNLLEDPAVRGIIINVHDETELEAERA | failed
13 | MKNRYIILSILLFSVACRKFEPYPVFSKLALKKAFVDLGTHKLATFSVIRNSNYLVVFESGLGDDHTIWNSSNIALKAADTIDVVTYDRANRGQSGNGPVPRDVARLQSELGSVIDSFANGRKVVLIGHSLGGFMIRAWAVNNPTKVAGMLFIDPSHEKAGLDSAQNQQAEDYMYGKWSSYGTNFGAALESREWVEDNMYMATLGNLPDVPVIVLTAMKVDPPNKVEILKPWYDAHESLGTGVTDFTHVSIPNSGHMVMIDQPQILLNYIHVLLAKLH | failed
14 | MRRQELARQCGERSKKDNKKGSAKAKKMEQMRNESRASTPSKDSNTSQSTASSTPTTSAGPGSKSEAGSTGTTTTNSTANSTTSRAHRKSTQSTPSTARPGTPSDKKEDPAAAETTEEEGPVAPKKKRMSEQRPSLTGSDVAEKPLPPTT | failed
15 | MAGLPGSVALIIVATAVIWKGSAYFERAAERLSKYYGLPVAVHGAIVVAVGSSFPEISSVVISTVIHDEFSLGVGAIVGSAIFNLLVIPALAALSSEELRSTRDIVHKDAQFYIISVLILFIVFALGATYVPGGTNRAAILTPTLVAVPLMAYGIYVFLHQQDASEHVADETHSVRPGREWGMLGVGLVIITVGVEGMVQGALSLGVIFDTPTFLWGLTVIAAGTSLPDAFVSVRAAKDDDSVTSLTNVLGSNTFNLLVAIPVGVLLAGRATIDFLVAIPTMGFLGAATLVFIVFIRTDLELTDREAYTLLGLYVVFVCWMALESVGLIETVSGI | failed
16 | MSPNLFIHPRQMPQILLALLGKNLVEIARQFFSARDSNPFFTPAGLTRIARLGRSAVLIGKSKPVPAGKRPTGSKPVHSLPPDRVDPENHARLEVAETDRFPLVKESAPPASFFVEQSPSPAFGEEGNGACKGSGIGGRCVLCVGGRAVLYPEYRRVVEASGGKLVIYRNLPQEPGHHLPVLLDQADMVVCPLDCVNHTAFFTVKRYCRRSGKPCVLLDRSNLSTFCKGIATLAGLYTSPAPARSDQSKRRCPASPEEGQFKDYLEHHHHHH | failed
17 | MGMKYWSSKRRLYLTPVSFGFACSALLMLGTLSSYPDWLTCNPAPVVNQNDAVIYYFFRNIMMAVLFMSSIILYYFRQRIMHSWKAHVLTFTACILFTLTIIVLSWLYSSHSPWLSVNFIDDLSHTFTPLWQSIIGWLLMAVWFITLILLISLSKLRNIFWFSGAFFCSAYLFTLFQLLSTAGELDQTWYQARFFETLCTLFLILVLLVDVFILYRESNHKYVHSYQNSIRDPLTRLYNRSFFYDTLNQQLAKVNAQHPLSVLISDLDHFKRINDSYGHVAGDKVIQFAASVLESHSRVDDAAARIGGEEFALLLVNTGEKEAQAIAERIRLAVSAGESHLPERMTISMGVYTTYDNSVTAEACVQRADEAMYEAKNNGRNQVIVWHQQGG | failed
18 | MSSLNNEEWDLLISGKKATLQYPIPLLCYPAPEVVSIAQIIDHTQLSLSATGSQIDVLCAEAKEYGFATVCVRPDYVSRAVQYLQGTQVGVTCVIGFHEGTYSTDQKVSEAKRAMQNGASELDMVMNYPWLSEKRYTDVFQDIRAVRLAAKDAILKVILETSQLTADEIIAGCVLSSLAGADYVKTSTGFNGPGASIENVSLMSAVCDSLQSETRVKASGGIRTIEDCVKMVRAGAERLGASAGVKIVNETRLGNRQVDEPMEPTNY | not failed
19 | MDLALAQVDSTVSGLYDALDLIGVLLNGIIGGTIARQRGYDIIGFLFLALFSALGGGMIRDMLIQQGTVAAIDNQIYLALAFSGALIAMAVNFKGRVWELFKVHGDAIVLGVWAVTGSVKAMNAGVAPLPSIFMGVLTAVGGGMVRDVATGQTPTIFGGGTLYAVPATLSATSMVIFHSFDQVILGMIISPFLGIALAVTAYWCGWVIPVNTDFAPVNLTVSQLRAMLSKAERKDKDQK | failed
20 | SFSAPIEDLQVRIAFLDELVEQLNTQLALQTQEIADLKKQMQLLYQRVEASDLSEGIAPFDPNTNKPPHY | failed
21 | MRIFIAFEGSFEAFDVAAHTSVGAIKQMVKDYFHIPLSEDKQGRWYLELTYAGAALKNNWSLSDVGISFCSTLKCFVKKEDKPTLYVFNAVTQETMAIKENMSILDRKVSDLRMLVTLSCGFPVSVYCLRTPAGLEMYDCNTLKDYQTDIGTTLRLDVWDGWKEFLMGCLLGQKPKVQRYLSKEGPVLKYQKRVALYIAAFHGHTELTEWALKQGAQPHEAVGVHPCRAWCHEALHTDVSNCPIHAAAEAGQLLILKAFVNFSVLCLECKNAAGQSPLAIASKHQHKDCVLYLLSKIWSTVSFLKLSVPMRIYIKIKQWILRAQTRRCHKSQPSRARVSGAKVGDTVMVDGFTKPKMTSKSWYKAEDKSWHTAQSKLPPCKQQPSRKPIGSLPMSQHDTKKQIFTFPSLVDAKNFSEVQSYQQENQKKIAAPARKEKNIKNPYLPQVPLPPVSRVHYAHPQFYCTPPSGDCLLRSLFKSFSEHSGRTPRENAIYCLAVASAFKEKRWLQQLEIARVLAKRSISNLTVKGGPAKCENYPESVL | failed
